Experimental data reported in EP4047016A1 (Université de Strasbourg, dated 2022).

How the values were obtained:
[1] = target: T1, recombinant murine TNC (mTNC) (murine); test: isothermal fluorescence titration, fluorescently tagged mTNC 700 nM, Nb 500-3500 nM
T1 construct: also called recombinant mTNC

[2] = target: T2, recombinant human Tenascin-C (rhTNC) (human); test: indirect ELISA on rhTNC, Nb dilutions 5x10^-7 M to 5x10^-12 M
T2 construct: It was purified on a Ni column, but no tag is described; also called recombinant hTNC

| Binder | Kd [1] [nM] | EC50 [2] [nM] |
| --- | --- | --- |
| single-domain antibody directed against Tenascin-C (TNC) Nb3 (VHH, Conjugated to 5 nm colloidal gold in the electron microscopy assay only., also called C3) VHH: WLQLVESGGGSVQTGGSLRLSCVVSGYTNSIYTLAWFRQAPGKEREGVAAIGSRNGNTYYDASVKDRFTISLDKAKNTVYLQMNDLKPEDTASYYCAAGSSWDLILQAYAYDYWGQGTQVTVSS | 711 | ~10 |
| single-domain antibody directed against Tenascin-C (TNC) Nb4 (VHH, Conjugated to 5 nm colloidal gold in the electron microscopy assay only., Dromedary VHH made in the E. coli WK6 periplasm and purified by IMAC; Conjugated to 5 nm colloidal gold for electron microscopy; also called C4) VHH: WVQLVESGGGSVQTGGSLRLSCVVSGYTNSIYTLAWFRQAPGKEREGVAAIASRNGNTYYDASVKDRFTISLDKAKNTVYLQMNGLKPEDTASYYCAAGSSWDLILQAYAYDYWGQGTQVTVSS | 537 | ~5 |
